These results are taken from publication PMC11459905, “Identification of SLC25A46 interaction interfaces with mitochondrial membrane fusogens Opa1 and Mfn2” (The Journal of Biological Chemistry, 2024).

The test concerns the target T1, Strep-Opa1 (s-Opa1, amino acids 253-960), expressed in P. pastoris (human, UniProt O60313 253-960).
T1 construct: Opa1 (optic atrophy 1), human, residues 253-960 (s-Opa1); N-terminal Twin-Strep tag, HRV 3C cleavage site and (G4S)3 linker; The methods also name a tagged Opa1(263-960); also called optic atrophy 1; Opa1(253-960); source: P. pastoris SMD1163, in GDN extract (lysate); purified as a complex with SLC25A46 for cross-linking; not shown: Twin-Strep, N-terminal, kept
T1 sequence (looked up): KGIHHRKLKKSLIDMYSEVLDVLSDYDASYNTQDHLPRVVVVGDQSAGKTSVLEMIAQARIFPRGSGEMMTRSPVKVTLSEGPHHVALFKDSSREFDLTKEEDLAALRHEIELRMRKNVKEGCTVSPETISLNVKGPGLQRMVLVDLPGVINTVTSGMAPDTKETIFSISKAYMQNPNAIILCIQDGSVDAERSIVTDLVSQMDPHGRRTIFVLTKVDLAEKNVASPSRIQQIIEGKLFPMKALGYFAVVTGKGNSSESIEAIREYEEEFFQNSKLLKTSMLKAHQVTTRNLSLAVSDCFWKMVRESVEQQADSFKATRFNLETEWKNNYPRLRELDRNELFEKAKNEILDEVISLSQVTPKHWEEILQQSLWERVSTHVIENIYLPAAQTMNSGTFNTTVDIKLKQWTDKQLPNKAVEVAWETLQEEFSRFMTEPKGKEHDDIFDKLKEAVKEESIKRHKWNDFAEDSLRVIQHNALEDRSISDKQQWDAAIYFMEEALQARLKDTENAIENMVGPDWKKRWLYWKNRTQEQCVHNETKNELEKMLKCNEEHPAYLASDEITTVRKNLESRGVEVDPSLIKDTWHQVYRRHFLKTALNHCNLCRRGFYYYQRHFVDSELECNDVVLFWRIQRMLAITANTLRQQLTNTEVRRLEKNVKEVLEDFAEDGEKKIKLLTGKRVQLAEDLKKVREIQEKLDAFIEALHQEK
In words: pull-down; GDN extracts of P. pastoris expressing or coexpressing the proteins; Strep-tagged Opa1 or Mfn2 held on StrepTactin XT 4Flow resin in a spin column, 4 °C, 25 mM Hepes, 150 mM NaCl, pH 8.0, washes with 0.1% GDN, elution with 50 mM biotin; Western blot; also with GTPγS, GMPPCP or GDP added to the lysates (no effect on coelution). Particulars: partners not purified.

B1: Solute carrier family 25 member A46 with C-terminal deca-histidine (SLC25A46-His), wild type (natural protein, human, UniProt Q96AG3 1-418, looked up)
chain: MHPRRPDGFDGLGYRGGARDEQGFGGAFPARSFSTGSDLGHWVTTPPDIPGSRNLHWGEKSPPYGVPTTSTPYEGPTEEPFSSGGGGSVQGQSSEQLNRFAGFGIGLASLFTENVLAHPCIVLRRQCQVNYHAQHYHLTPFTVINIMYSFNKTQGPRALWKGMGSTFIVQGVTLGAEGIISEFTPLPREVLHKWSPKQIGEHLLLKSLTYVVAMPFYSASLIETVQSEIIRDNTGILECVKEGIGRVIGMGVPHSKRLLPLLSLIFPTVLHGVLHYIISSVIQKFVLLILKRKTYNSHLAESTSPVQSMLDAYFPELIANFAASLCSDVILYPLETVLHRLHIQGTRTIIDNTDLGYEVLPINTQYEGMRDCINTIRQEEGVFGFYKGFGAVIIQYTLHAAVLQITKIIYSTLLQNNI
notes: SLC25A46, human; gene synthesized (GenScript), cloned into pPICZ A; C terminus fused to (G4S)3 linker, TEV cleavage site and deca-histidine; only a pPICZ A (P. pastoris) construct of SLC25A46 is described; also called WT SLC25A46; source: P. pastoris SMD1163, in GDN extract (lysate); also recombinantly expressed and purified; not shown: His10, C-terminal, kept
For the molecule B1, the binding result is given as “binds”.
